What was measured:
Experiment in all cases: cell-based or functional assay
hGLP-1R = hGLP-1R (Homo sapiens, UniProt P43220)
[1] = target: human glucagon receptor (human) (UniProt P47871)
[2] = target: human GLP-1R (SNAP-GLP-1R expressed in HEK293 cells) (human) (UniProt P43220)
[3] = target: T1, human GIP receptor (human) (UniProt P48546)
T1 sequence (looked up): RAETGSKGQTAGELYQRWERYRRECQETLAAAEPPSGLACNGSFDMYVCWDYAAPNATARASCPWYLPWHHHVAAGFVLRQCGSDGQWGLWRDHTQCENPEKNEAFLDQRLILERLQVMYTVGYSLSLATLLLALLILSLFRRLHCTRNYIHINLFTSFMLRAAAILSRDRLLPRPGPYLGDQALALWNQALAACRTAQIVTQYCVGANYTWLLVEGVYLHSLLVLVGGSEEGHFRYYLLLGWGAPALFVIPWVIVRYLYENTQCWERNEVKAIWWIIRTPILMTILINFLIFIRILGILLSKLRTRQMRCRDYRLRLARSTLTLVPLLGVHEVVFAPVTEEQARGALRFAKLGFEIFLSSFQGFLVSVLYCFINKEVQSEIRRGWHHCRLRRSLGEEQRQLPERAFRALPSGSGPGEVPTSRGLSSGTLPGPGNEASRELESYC

Chain of human glucagon receptor (human) (P47871 26-477): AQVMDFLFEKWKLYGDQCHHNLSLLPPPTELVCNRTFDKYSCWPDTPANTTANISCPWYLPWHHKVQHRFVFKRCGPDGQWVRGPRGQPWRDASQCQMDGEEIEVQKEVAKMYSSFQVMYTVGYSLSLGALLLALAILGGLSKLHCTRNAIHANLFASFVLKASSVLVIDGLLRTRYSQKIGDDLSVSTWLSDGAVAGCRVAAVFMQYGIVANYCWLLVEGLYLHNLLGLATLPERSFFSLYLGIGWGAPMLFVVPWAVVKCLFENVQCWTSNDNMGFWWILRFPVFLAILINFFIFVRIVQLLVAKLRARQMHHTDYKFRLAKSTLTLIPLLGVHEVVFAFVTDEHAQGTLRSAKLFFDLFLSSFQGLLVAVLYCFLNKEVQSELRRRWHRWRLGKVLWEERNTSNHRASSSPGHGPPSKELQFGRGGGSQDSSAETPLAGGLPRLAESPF
Chain of hGLP-1R (P43220 24-463): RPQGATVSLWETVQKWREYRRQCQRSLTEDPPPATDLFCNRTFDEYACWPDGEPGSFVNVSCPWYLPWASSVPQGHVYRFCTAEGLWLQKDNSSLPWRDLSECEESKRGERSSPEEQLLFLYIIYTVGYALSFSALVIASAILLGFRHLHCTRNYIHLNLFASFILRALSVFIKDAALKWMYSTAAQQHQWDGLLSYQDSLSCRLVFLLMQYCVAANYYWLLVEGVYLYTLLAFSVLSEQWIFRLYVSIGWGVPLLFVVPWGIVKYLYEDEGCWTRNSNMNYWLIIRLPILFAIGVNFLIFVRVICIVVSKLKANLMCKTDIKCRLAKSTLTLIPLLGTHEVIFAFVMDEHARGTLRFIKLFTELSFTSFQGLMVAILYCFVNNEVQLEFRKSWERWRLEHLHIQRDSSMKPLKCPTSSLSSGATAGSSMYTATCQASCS
Chain of human GLP-1R (SNAP-GLP-1R expressed in HEK293 cells) (human) (P43220 24-463): as above

| Binder | Relative cAMP EC50, nM (0.1% casein) (hGLP-1R) [nM] | cAMP Rel EC50, nM (1% HSA) (hGLP-1R) [nM] | Relative cAMP EC50, nM (0.1% casein) [1] [nM] | cAMP Rel EC50, nM (1% HSA) [1] [nM] | GLP1R Internalization EC50 [2] [nM] | Internalization % TOP [2] [%] | Relative cAMP EC50, nM (0.1% casein) [3] [nM] | cAMP Rel EC50, nM (1% HSA) [3] [nM] |
| --- | --- | --- | --- | --- | --- | --- | --- | --- |
| YXQGTFTSDFSXXLDKKAQXAFIEWLLEGGPSSGAPPPSGS (synthetic construct; SITE 2: note = 2-Aminoisobutyric Acid; SITE 12: note = L-ornithine; SITE 13: note = alpha-methyl-leucine; SITE 17: note = Lysine is chemically modified through conjugation of the epsilon-amino group of the Lysine side chain with (2-[2-(2-Amino-ethoxy)-ethoxy]-acetyl)-(gamma-Glu)) [Example 168] | 2.44 | 281 | 5.54 | 1270 | 74.8 | 38.7 | 0.233 | 31.9 |
| YXQGTFTSDFSXXLDKKAQXAFIEWLLEGGSSSGAPPPSGS (synthetic construct; SITE 2: note = 2-Aminoisobutyric Acid; SITE 12: note = L-ornithine; SITE 13: note = alpha-methyl-leucine; SITE 17: note = Lysine is chemically modified through conjugation of the epsilon-amino group of the Lysine side chain with (2-[2-(2-Amino-ethoxy)-ethoxy]-acetyl)-(gamma-Glu)) [Example 173] | 2.32 | 293 | 3.6 | 745 | 97.1 | 38.6 | 0.168 | 49.9 |
| YXQGTFTSDFSXXLDKKAQXAFIEWLLEGGSSSGAPPPSGE (synthetic construct; SITE 2: note = 2-Aminoisobutyric Acid; SITE 12: note = L-ornithine; SITE 13: note = alpha-methyl-leucine; SITE 17: note = Lysine is chemically modified through conjugation of the epsilon-amino group of the Lysine side chain with (2-[2-(2-Amino-ethoxy)-ethoxy]-acetyl)-(gamma-Glu)) [Example 172] | 3.5 | 457 | 3.38 | 605 | 121 | 41.4 | 0.174 | 29.3 |
| YXQGTFTSDFSXXLDKKAQXAFIEWLLEGGSSSGAPPPSGT (synthetic construct; SITE 2: note = 2-Aminoisobutyric Acid; SITE 12: note = L-ornithine; SITE 13: note = alpha-methyl-leucine; SITE 17: note = Lysine is chemically modified through conjugation of the epsilon-amino group of the Lysine side chain with (2-[2-(2-Amino-ethoxy)-ethoxy]-acetyl)-(gamma-Glu)) [Example 174] | 2.33 | 208 | 4.24 | 307 | 123 | 52.8 | 0.198 | 20.8 |
| YXQGTFTSDFSXXLDKKAQXAFIEWLLEGGTSSGAPPPSGS (synthetic construct; SITE 2: note = 2-Aminoisobutyric Acid; SITE 12: note = L-ornithine; SITE 13: note = alpha-methyl-leucine; SITE 17: note = Lysine is chemically modified through conjugation of the epsilon-amino group of the Lysine side chain with (2-[2-(2-Amino-ethoxy)-ethoxy]-acetyl)-(gamma-Glu)) [Example 176] | 2.92 | 389 | 4.1 | 461 | 103 | 48 | 0.212 | 40.7 |
| YXQGTFTSDFSXXLDKKAQXAFIEYLLEXGHSSGAPPPSGS (synthetic construct; SITE 2: note = 2-Aminoisobutyric Acid; SITE 12: note = L-ornithine; SITE 13: note = alpha-methyl-leucine; SITE 17: note = Lysine is chemically modified through conjugation of the epsilon-amino group of the Lysine side chain with (2-[2-(2-Amino-ethoxy)-ethoxy]-acetyl)2-(gamma-Glu)) [Example 181] | 4.39 | 365 | 6.25 | 772 | 116 | 47.5 | 0.133 | 12.7 |
| YXQGTFTSDFSXXLDKKAQXAFIEWLLEGGTSSGAPPPSGE (synthetic construct; SITE 2: note = 2-Aminoisobutyric Acid; SITE 12: note = L-ornithine; SITE 13: note = alpha-methyl-leucine; SITE 17: note = Lysine is chemically modified through conjugation of the epsilon-amino group of the Lysine side chain with (2-[2-(2-Amino-ethoxy)-ethoxy]-acetyl)-(gamma-Glu)) [Example 175] | 4 | 386 | 4.92 | 579 | 116 | 49.2 | 0.218 | 29.6 |
| YXQGTFTSDFSXXLDKKAQXAFIEWLLEGGHSSGAPPPSGT (synthetic construct; SITE 2: note = 2-Aminoisobutyric Acid; SITE 12: note = L-ornithine; SITE 13: note = alpha-methyl-leucine; SITE 17: note = Lysine is chemically modified through conjugation of the epsilon-amino group of the Lysine side chain with (2-[2-(2-Amino-ethoxy)-ethoxy]-acetyl)-(gamma-Glu)) [Example 171] | 2.89 | 287 | 3.86 | 502 | 61.4 | 36.1 | 0.2 | 27.1 |
| YXQGTFTSDFSXXLDKKAQXAFIEWLLEGGTSSGAPPPSGT (synthetic construct; SITE 2: note = 2-Aminoisobutyric Acid; SITE 12: note = L-ornithine; SITE 13: note = alpha-methyl-leucine; SITE 17: note = Lysine is chemically modified through conjugation of the epsilon-amino group of the Lysine side chain with (2-[2-(2-Amino-ethoxy)-ethoxy]-acetyl)-(gamma-Glu)) [Example 177] | 2.97 | 483 | 4.22 | 758 | 79.4 | 44 | 0.213 | 34.8 |
| YXQGTFTSDFSXXLDKKAQXAFIEWLLEGGHSSGAPPPSGE (synthetic construct; SITE 2: note = 2-Aminoisobutyric Acid; SITE 12: note = L-ornithine; SITE 13: note = alpha-methyl-leucine; SITE 17: note = Lysine is chemically modified through conjugation of the epsilon-amino group of the Lysine side chain with (2-[2-(2-Amino-ethoxy)-ethoxy]-acetyl)2-(gamma-Glu)) [Example 169] | 6.17 | 216 | 11.7 | 439 | 178 | 49.4 | 0.209 | 21.5 |
| YXQGTFTSDFSXXLDKKAQXAFIEYLLEXGHSSGAPPPSGE (synthetic construct; SITE 2: note = 2-Aminoisobutyric Acid; SITE 12: note = L-ornithine; SITE 13: note = alpha-methyl-leucine; SITE 17: note = Lysine is chemically modified through conjugation of the epsilon-amino group of the Lysine side chain with (2-[2-(2-Amino-ethoxy)-ethoxy]-acetyl)2-(gamma-Glu)) [Example 186] | 5.26 | 690 | 4.67 | 1280 | 124 | 41.1 | 0.107 | 18 |
| YXQGTFTSDFSXXLDKKAQXAFIEYLLEXGESSGAPPPSGS (synthetic construct; SITE 2: note = 2-Aminoisobutyric Acid; SITE 12: note = L-ornithine; SITE 13: note = alpha-methyl-leucine; SITE 17: note = Lysine is chemically modified through conjugation of the epsilon-amino group of the Lysine side chain with (2-[2-(2-Amino-ethoxy)-ethoxy]-acetyl)2-(gamma-Glu)) [Example 179] | 5.81 | 904 | 4.82 | 1440 | 63.4 | 48.4 | 0.104 | 21.3 |
| YXQGTFTSDFSXXLDKKAQXAFIEYLLEXGXSSGAPPPSGS (synthetic construct; SITE 2: note = 2-Aminoisobutyric Acid; SITE 12: note = L-ornithine; SITE 13: note = alpha-methyl-leucine; SITE 17: note = Lysine is chemically modified through conjugation of the epsilon-amino group of the Lysine side chain with (2-[2-(2-Amino-ethoxy)-ethoxy]-acetyl)2-(gamma-Glu)) [Example 183] | 5.03 | 295 | 3.83 | 504 | 100 | 45.4 | 0.0759 | 13.7 |

— patent publication US20240270821A1, “GIP/GLP1/GCG TRI-RECEPTOR AGONISTS AND USES THEREOF” (priority 2023, published 2024)
